Data: patent US20170088585A1 (BAR ILAN UNIVERSITY, published 2017)
Square brackets hold non-standard residues; d marks the D form.

target: Aβ40 (UniProt P05067 672-711); test: cell-based or functional assay
Sequence (P05067 672-711 limits assumed): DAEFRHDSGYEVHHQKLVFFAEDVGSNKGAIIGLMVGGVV

| Inhibition at 1:1 (ThT assay, Aβ:cyclic peptide) | Inhibition at 1:1/3 (ThT assay, Aβ:cyclic peptide) | Binder |
| --- | --- | --- |
| 56% | 47% | cyclo([dL]L[dW]H[dA]K) (SMILES CC(C)C[C@@H]1NC(=O)[C@@H](CC(C)C)NC(=O)[C@H](CCCCN)NC(=O)[C@@H](C)NC(=O)[C@H](Cc2c[nH]cn2)NC(=O)[C@@H](Cc2c[nH]c3ccccc23)NC1=O) [[lLwHaK]: Cyclo-D-leucine-L-leucine-D-tryptophan-L-histidine-D-alanine-L-lysine] |
| 60% | 32% | cyclo([dL]L[dW]H[dS]K) (SMILES CC(C)C[C@@H]1NC(=O)[C@@H](CC(C)C)NC(=O)[C@H](CCCCN)NC(=O)[C@@H](CO)NC(=O)[C@H](Cc2c[nH]cn2)NC(=O)[C@@H](Cc2c[nH]c3ccccc23)NC1=O) [[lLwHsK]: Cyclo-D-leucine-L-leucine-D-tryptophan-L-histidine-D-serine-L-lysine] |
| 67% | 48% | cyclo([dL]L[dW]H[dS]A) (SMILES CC(C)C[C@@H]1NC(=O)[C@@H](CC(C)C)NC(=O)[C@H](C)NC(=O)[C@@H](CO)NC(=O)[C@H](Cc2c[nH]cn2)NC(=O)[C@@H](Cc2c[nH]c3ccccc23)NC1=O) [[lLwHsA]: Cyclo-D-leucine-L-leucine-D-tryptophan-L-histidine-D-serine-L-alanine] |
| 73% | 49% | cyclo([dL]L[dW]A[dS]K) (SMILES CC(C)C[C@@H]1NC(=O)[C@@H](CC(C)C)NC(=O)[C@H](CCCCN)NC(=O)[C@@H](CO)NC(=O)[C@H](C)NC(=O)[C@@H](Cc2c[nH]c3ccccc23)NC1=O) [[lLwAsK]: Cyclo-D-leucine-L-leucine-D-tryptophan-L-alanine-D-serine-L-lysine] |

The next lines start with the binder.

| Binder | Inhibition at 1:1 (ThT assay, Aβ:cyclic peptide) | Inhibition at 1:1/3 (ThT assay, Aβ:cyclic peptide) |
| --- | --- | --- |
| cyclo([dL]L[dA]H[dS]K) (SMILES CC(C)C[C@@H]1NC(=O)[C@@H](CC(C)C)NC(=O)[C@H](CCCCN)NC(=O)[C@@H](CO)NC(=O)[C@H](Cc2c[nH]cn2)NC(=O)[C@@H](C)NC1=O) [[lLaHsK]: Cyclo-D-leucine-L-leucine-D-alanine-L-histidine-D-serine-L-lysine] | 4% | 5% |
| cyclo([dA]L[dW]H[dS]K) (SMILES CC(C)C[C@@H]1NC(=O)[C@@H](C)NC(=O)[C@H](CCCCN)NC(=O)[C@@H](CO)NC(=O)[C@H](Cc2c[nH]cn2)NC(=O)[C@@H](Cc2c[nH]c3ccccc23)NC1=O) [[aLwHsK]: Cyclo-D-alanine-L-leucine-D-tryptophan-L-histidine-D-serine-L-lysine] | 53% | 12% |
| cyclo([dL]A[dW]H[dS]K) (SMILES CC(C)C[C@H]1NC(=O)[C@H](CCCCN)NC(=O)[C@@H](CO)NC(=O)[C@H](Cc2c[nH]cn2)NC(=O)[C@@H](Cc2c[nH]c3ccccc23)NC(=O)[C@H](C)NC1=O) [[lAwHsK]: Cyclo-D-leucine-L-alanine-D-tryptophan-L-histidine-D-serine-L-lysine] | 44% | 3% |
